These results are taken from patent US20190390248.

In the data set the target is human prothrombin (UniProt P00734).

As to “carinactivase-2 from Echis carinatus venom”, the “percent of S-2238 hydrolysed by the thrombin formed” value is on record as “followed by carinactivase-2 (2.5%)”. Under “scale: nmol thrombin/mL/min/µmol prothrombin/µmol activator”, this substance showed a Thrombin generation rate of 1.91.
